Laboratory results as given in the DeepSol protein solubility set.

Experiment: soluble on expression in E. coli; label from the status in PepcDB or PDB records

Row | Sequence | soluble on expression in E. coli
1 | MIEWQDLHHSELSVSQLYALLQLRCAVFVVEQNCPYQDIDGDDLTGDNRHILGWKNDELVAYARILKSDDDLEPVVIGRVIVSEALRGEKVGQQLMSKTLETCTHHWPDKPVYLGAQAHLQNFYQSFGFIPVTEVYEEDGIPHIGMAREVIQALEHHHHHH | not soluble
2 | MSLGKYFGTDGVRGEANVELTPELAFKLGRFGGYVLSQHEPDRPRVFVARDTRISGELLESALVAGLLSVGIEVYKLGVLATPGVSYLVRTEQASAGVMISASHNPALDNGIKFFGGDGFKLADEQEAEIEALLDAKEDDLPRPSAQGLGMVVDYPEGLRKYEKFLVSTGSDLEGMKIAIDAANGAASYSARQVFLDLNADITVIGEEPDGLNINDGVGSTHPEQLQNLVKGSDFVIGLAFDGDSDRLIAVDENGEIVDGDKIMYIIGKYLSEKGRLSKNTIVTTVMSNLGFHKALDRENINKKITAVGDRYVVEEMRRSGYNLGGEQSGHVIIMDYNTTGDGQLTAIQLTKVMKETGKTLSELANEVTIYPQKLVNIYVKNDMKNKAMEVPMIAQIIEKMEAEMAGNGRILVRPSGTEPLLRVMAEAPSTEEVNYYVDTIAKVVKTEIGIEGHHHHHH | soluble
3 | MSDIEVFELDDNFDPLEDIGLVDEEDIEHHDYQMPIPDAELSVVPEPVQLTPREKMDKLIAGIPGHKQRIVEVIRICEEPLTASEIEERLNDTYPQSASVYDAARIADLLVEAEGLVRLNAEEGADEETVAAPKTDTEHPEADVDAVVTPHAGVDETGDYLEVQPPEPSRYVATDEGLAFVAAMTDMAPVMELLEKEPRYLPIYERILRMTSNEEGCGKAELNKAIDSDELCQEPRRYTEYFLFRLQEVAAVRWNRVWYATDLGTSALNSNIFTK | not soluble
4 | MTEQSAHEKYEFKKKLEGLRDKKGRSTELISLYIPPDKQIFDVTNQLKDEHGQAANIKSKLTRTNVQGAIESLLSRLRYLDKVPENGIVYFTGAVDIGANKTSMESEVIVPPDPITVYKYHCDSSFYLEPLEDMLKDKNTYGLLVLDRREATIGLLVGKRIQPFRNLTSTVPGKQRKGGQSAHRFQQLRLIAIHDFYKRIGDAASEVFMAVDHKDLKGVLIGGPSPTKEEFHAGEFLHHELMKKILGLFDTAYTDESGLSELVNAAGEKLQDLELMGQKNAVRDFFKELIADSGKVAYGESQVRANLEINSVDVLLLSEDLRAERVTTKCSVCGYENKWTRRWKPGEPAPAAGNCPKCGSSLEVTDVTDIVDEFSELADKSNAKVVFVSTDFDEGSQLMNAFGGIAAILRYNTGV | not soluble
5 | MTPFKELQKFIHWKERFLRDYEKIEKGELEKIREEVKEMLGEEPDERLLKALRSMYVGGMEHRVEDEEIRYWTNWGGVKTYETFNRFPLLSDIELAFVFWALGKLFVPLLMHETGVKSEPFKKLSREEQEEAVLDELDTLWETQLTLILQALQFLDLKSISSEKPSSEG | not soluble
6 | MGGEDDELKGLLGLPEEETELDNLTEFNTAHNKRISTLTIEEGNLDIQRPKRKRKNSRVTFSEDDEIINPEDVDPSVGRFRNMVQTAVVPVKKKRVEGPGSLGLEESGSRRMQNFAFSGGLYGGLPPTHSEAGSQPHGIHGTALIGGLPMPYPNLAPDVDLTPVVPSAVNMNPAPNPAVYNPEAVNEPKKKKYAKEAWPGKKPTPSLLI | soluble
7 | MGHHHHHHSHMKGFTATLFLWTLIFPSCSGGGGGKAWPTHVVCSDSGLEVLYQSCDPLQDFGFSVEKCSKQLKSNINIRFGIILREDIKELFLDLALMSQGSSVLNFSYPICEAALPKFSFCGRRKGEQIYYAGPVNNPEFTIPQGEYQVLLELYTEKRSTVACANATIMCS | not soluble
8 | MGSDKIHHHHHHQEPENQTLETILNRKSVRKYKDRPVEKEKIDKLIRAGMAAPSSRDRRPWEFIIVTDRKALDTMAEGLPFARMLKETRQAIVVCGDTIKSSNAWFLDCSAASQNLLLAAESMGLGAVWTAVYPYPDRIEIVRKELRLPDHIMPLNVIPVGYPMQKETPKNKYNVQQIHHNGW | not soluble
9 | MMPTSTCGYPGMAEQSTVLYTAVGYMVGFVSLFNHTHSQDNFFHRGCYYGCDDDNMRFAFFSKAALEFLLRSNKKPDIIHCHDWQTGLIPIMLYEIYKYHGMEYQRVCYTIHNFKHQGMGGVGTLQATALNEASYYFQYNKLRDNFNPFALNLMKGGIIYSNAVTTVSPHHAVEAQTSE | not soluble
10 | MELKYVIPNMEKTFGQLEYAGEGNIEQRRINGRPTILSRSYNLYSTIQRADDIVVILPSEAGEKHFESDEKVKLINPHITAEGYKIGNRGFTNYIMHADDMVKALEHHHHHH | not soluble
11 | MEANKYKIGIIGSRDIILPFSMIGFDIFPAYQEQEAINTLRKLAQSDYGVIYITEDIASMILDTIRHYDSQVVPAIILLPTHKQGLNLGLKRIEDNVEKAVGHNILLEHHHHHH | not soluble
12 | MMRGGMGNMNNMMKQMQKMQKDMAKAQEELGEKTVEGTAGGGMITVIANGHKQILEVKIKEEVVDPEDIEMLQDLVLAATNDALKKADELSNSTMGKFTKGLNLPGGMF | not soluble
13 | MAHHHHHHMDIIKNETKEMDMYNPSVSINFEKGILKNSCDTPKDTKLEKLKREYNILTSSYDYNSGNKKERRNIWKEKVKHNIASKNKKKMVKIKKEENNNELENKKGENLLMYVNDKNSNLNVYIDENDLFEETPNISSNTLLSYISNIFLRKKNIYEIKKCDFIKEVNTDESLKRNFIPPVDILYDDKKVLFLFFISGNLQNFHVTSNNNYLTISGEKIPYQVQDHTSYFSHEIKKGYFIRTYCFMKTFDKEKIYYEQNNGVIKIYVYICDDNNI | not soluble
14 | MLRHNVPVRRDLDQIAANNGFDFHIIDNEIYWDESRAYRFTLRQIEEQIEKPTAELHQMCLEVVDRAVKDEEILTQLAIPPLYWDVIAESWRARDPSLYGRMDFAWCGNAPVKLLEYNADTPTSLYESAYFQWLWLEDARRSGIIPRDADQYNAIQERLISRFSELYSRELFYFCCCQDTDEDRSTVLYLQDCAQQAGQESRFIYIEDLGLGVGGVLTDLDDNVIQRAFKLYPLEWMMRDDNGPLLRKRREQWVEPLWKSILSNKGLMPLLWRFFPGHPNLLASWFEGEKSQIAAGESYVRKPIYSREGGNVTIFDGQNNVVDHADGDYADEPMIYQAFQPLPRFGDSYTLIGSWIVDDEACGMGIREDNTLITKDTSRFVPHYIAG | not soluble
15 | MMHFEVHGRTDAEAPTILLSSGLGGSSAYWLPQIEALSDHFRIVTYDHRGTGRTGGEVPTEGGISAMADDVLEIVSALNLEKFHFMGHALGGLIGLDIALRQPRLIDRLVLINAWSKADPHSGRCFDVRIELLEKSGVDAFVKAQPLFLYPAAWMSEHQERLARDDAHGVAHFQGKTNVLRRIAALRAFDIDARLGEIGNPVLVVATKDDLLVPYTRSLRLAEGLPQSELCLLDFGAHAVNITEPDLFNTRLLQFLLPADQT | not soluble
16 | MGSDKIHHHHHHMRLILSQCLANLSVRFLMNRNSYNKIAHLWNVARNGFFGREREYLDAILSVAPIGSTILDLGCGTGRPMAEYIVSRGRCVLGVDQSEEMLRLARQKLPHEQWVLSSIESYEPVEGYHGALLWDSLFHIRRTEHELIVSKVVRGLPSGGRLMLTVGGSAHPEFTDFMYGEEFYYDSNTPQETETFLQRLSCRMVIGEYMNLPDGGRDKGRYAIVAEKI | not soluble
17 | MKIQELKLFNGLTEDELQRSLVCSQSNIVEYEKDDYIFSQGERPRWIYMILSGEVLLEQINMAGRQTYAEYLGERQQFGVVDLFLKRKQYSYSARARSHVKLLKISSHFFYGTCENNCMHHSKILFNMMGVFAEEAEKKSKKIQLLTCGSLRQRIALYLLQNSGENKKVELMMNREELAASLNAARPSLSRELSQMQDEGIIKMEGRKSIKILDYSRLQEDLADVSD | not soluble
18 | MHQVISATTNPAKIQAILQAFEEIFGEGSCHITPVAVESGVPEQPFGSEETRAGARNRVDNARRLHPQADFWVAIEAGIDDDATFSWVVIDNGVQRGEARSATLPLPAVILDRVRQGEALGPVMSQYTGIDEIGRKEGAIGVFTAGKLTRSSVYYQAVILALSPFHNAVYR | soluble
19 | QQFPNECQLDQLNALEPSHVLKAEAGRIEVWDHHAPQLRCSGVSFVRYIIESKGLYLPSFFSTAKLSFVAKGEGLMGRVVPGCAETFQDSSVFQPGGGSPFGEGQGQGQQGQGQGHQGQGQGQQGQQGQQGQQSQGQGFRDMHQKVEHIRTGDTIATHPGVAQWFYNDGNQPLVIVSVLDLASHQNQLDRNPRPFYLAGNNPQGQVWIEGREQQPQKNILNGFTPEVLAKAFKIDVRTAQQLQNQQDNRGNIIRVQGPFSVIRPPLRSQRPQEEVNGLEETICSARCTDNLDDPSNADVYKPQLGYISTLNSYDLPILRFLRLSALRGSIRQNAMVLPQWNANANAVLYVTDGEAHVQVVNDNGDRVFDGQVSQGQLLSIPQGFSVVKRATSEQFRWIEFKTNANAQINTLAGRTSVLRGLPLEVISNGYQISLEEARRVKFNTIETTLTHSSGPASYGGPRKADA | soluble
20 | MKQIKNTHYEGERPLFASHGLYLEEVTIHAGESALKECSDIEAVNCRFEGKYPFWHNDGFVVKNCLFTEGARAALWYSRNLKMKDTLVEAPKMFREMDGVELENVQLPNALETLWYCRNVELNNVKIDKGDYLFIHGEDIRIKNFVLNGNYSFQYCKNVEIRHAEIHSKDAFWNTENVTVYDSVLDGEYLGWHSKNLRLVNCKISGTQPLCYAHDLIMENCTMADDADLAFEHSSVKATIKGPVHSVKNPRTGNIVAESFGTIILDENLKAPGNCELKLWDGLTCFD | soluble
21 | MSLTAGKMNVKEKIKDIHFYRAVSDISRPIADSTHTISQIGFYIVELMTAEGVRGQGYVLSFHYSPGAMEGALRDVCSFISAGEYAVYDTVLARADWDREAEYFGNTGINNCAIAAVNLAMWDAWGHTCRQPVWKMLGANRRRIPVYGSGGWISYTDQELLEEVLDYKKRGFKAVKIKVGSGSIERDAERLAKCREALGDSVKIMMDANQGFNVPDALELARRASSMGIQWFEEPVVHTDYAGYQLLRNQCGIALAMGEREYDFEALKQLSVRNALDLWQPDIVRLGGVEAWRESAALAEAFGLPVLPHYYKDYDVPLLCTVRSPYGAESFDWIDGIIDNAMEIENGFASPREGDGWGFRFREECMTEVEGHHHHHH | soluble
22 | MRRGSGNPERPSLSRDGLRVPPPCPGKRGPGHFSGYHGGMEGIRRAAQRAAEEFLQAFPMAPGSLFVLGGSTSEVLGERVGTRPSLEAAHAVLEGLLPPLLERGVHVAVQACEHLNRALVVERETARAFGLEEVAVFPHPKAGGALATAAFLRFRDPVMVESLKAQAHGGMDIGGVLIGMHLRPVAVPLRLSVRKIGEAVLLAAKTRPKLVGGARAVYTREEMLKKLEEFLPKPP | soluble
23 | MGSDKIHHHHHHMISKLAEIVGEEWVISGDEAKLYSYPAFIPLKIEPPVVVLPGSEEEVISLVNFLNENNIKYIVRGSGTSLSGATTPTQGEVVISLTRLNRIYSLDNFEITVGPGLANFLINKTLGNSNLFYAPDPSSYVVSSIGGNISHDSGGMHTPKYGTTFDSIIRLKVLLSNGHVEEIGSSNFFDPTSIFVGAEGTLGVILRATLRLFPKPEVSKTILASFNSIDDAGKAVVSVYKAGVTPAAMEFLDKNSIIAIENTQYKANYPMAEAILLIELDGYSVNVEEEEVRVVSAIRNNNGEVFIPKDEEEKNRWWWGRKGAFPSFAYYSPAYLTLDANVPRSTLPTMLRFTYEISKKYGLPVANSFHAGDGTLHPLIGFDPKNADETIKAIKAAEEITKLAIKVGGVPSGEHGIGIEKIKFMKLYYSEDDLTLMRRLKATFDPKRLLNPCKLIPPAKNEICNTVNRIHTYLLEGDI | not soluble
